Target: T1, wildtype αEβ7 ectodomain (human, UniProt P38570 19-1123; P26010 20-723, N-linked glycan at N303 (N321 in the legend of Figure 4))
T1 construct: signal peptide in the construct; integrin alpha-E (CD103) ectodomain, M1-H1123 (limits count on the precursor); integrin beta-7 ectodomain, M1-H723 (limits count on the precursor); Wild-type αE construct 'used for integrin:e-cadherin complex'; The αEβ7 of the BLI assay is not specified; also called integrin αEβ7; source: ExpiCHO cells, α and β co-transfected, secreted, purified (HisTrap, SEC)
Assay: BLI; Octet Red, 25°C; Fc-tagged E-cadherin ectodomain loaded on Protein A biosensors; αEβ7 500nM to 16.125nM in activating buffer with 0.1% BSA and 0.02% Tween-20; 1:1 model, global fit of three replicates
Settings: both partners purified

T1 sequence (P38570 19-1123, chain 1 of 2): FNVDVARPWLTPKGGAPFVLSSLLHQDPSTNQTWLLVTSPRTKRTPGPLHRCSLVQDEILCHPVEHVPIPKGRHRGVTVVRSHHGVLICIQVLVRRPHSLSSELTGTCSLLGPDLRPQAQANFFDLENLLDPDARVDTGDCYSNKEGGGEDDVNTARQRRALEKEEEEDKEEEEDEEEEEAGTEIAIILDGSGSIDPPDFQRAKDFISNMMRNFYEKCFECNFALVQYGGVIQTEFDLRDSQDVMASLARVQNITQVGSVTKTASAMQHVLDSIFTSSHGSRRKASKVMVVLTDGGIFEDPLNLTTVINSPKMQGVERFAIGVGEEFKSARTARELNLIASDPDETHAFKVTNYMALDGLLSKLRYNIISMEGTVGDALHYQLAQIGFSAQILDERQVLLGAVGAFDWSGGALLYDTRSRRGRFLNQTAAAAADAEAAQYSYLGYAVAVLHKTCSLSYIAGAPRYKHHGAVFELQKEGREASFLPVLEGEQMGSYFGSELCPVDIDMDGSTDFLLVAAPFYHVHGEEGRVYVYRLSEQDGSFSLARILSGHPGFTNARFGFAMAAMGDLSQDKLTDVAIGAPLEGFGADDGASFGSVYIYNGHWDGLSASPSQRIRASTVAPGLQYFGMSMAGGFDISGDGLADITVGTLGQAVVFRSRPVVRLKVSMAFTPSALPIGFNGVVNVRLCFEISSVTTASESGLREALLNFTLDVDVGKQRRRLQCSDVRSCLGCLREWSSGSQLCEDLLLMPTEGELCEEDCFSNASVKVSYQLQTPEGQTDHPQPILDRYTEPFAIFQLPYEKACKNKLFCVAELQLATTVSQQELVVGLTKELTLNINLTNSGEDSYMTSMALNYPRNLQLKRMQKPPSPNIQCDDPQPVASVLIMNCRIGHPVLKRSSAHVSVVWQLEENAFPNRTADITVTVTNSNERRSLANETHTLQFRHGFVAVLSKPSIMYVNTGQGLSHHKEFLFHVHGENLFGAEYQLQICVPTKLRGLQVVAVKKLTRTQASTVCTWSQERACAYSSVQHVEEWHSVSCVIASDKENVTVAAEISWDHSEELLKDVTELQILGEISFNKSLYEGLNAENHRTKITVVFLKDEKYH
T1 sequence (P26010 20-723, chain 2 of 2): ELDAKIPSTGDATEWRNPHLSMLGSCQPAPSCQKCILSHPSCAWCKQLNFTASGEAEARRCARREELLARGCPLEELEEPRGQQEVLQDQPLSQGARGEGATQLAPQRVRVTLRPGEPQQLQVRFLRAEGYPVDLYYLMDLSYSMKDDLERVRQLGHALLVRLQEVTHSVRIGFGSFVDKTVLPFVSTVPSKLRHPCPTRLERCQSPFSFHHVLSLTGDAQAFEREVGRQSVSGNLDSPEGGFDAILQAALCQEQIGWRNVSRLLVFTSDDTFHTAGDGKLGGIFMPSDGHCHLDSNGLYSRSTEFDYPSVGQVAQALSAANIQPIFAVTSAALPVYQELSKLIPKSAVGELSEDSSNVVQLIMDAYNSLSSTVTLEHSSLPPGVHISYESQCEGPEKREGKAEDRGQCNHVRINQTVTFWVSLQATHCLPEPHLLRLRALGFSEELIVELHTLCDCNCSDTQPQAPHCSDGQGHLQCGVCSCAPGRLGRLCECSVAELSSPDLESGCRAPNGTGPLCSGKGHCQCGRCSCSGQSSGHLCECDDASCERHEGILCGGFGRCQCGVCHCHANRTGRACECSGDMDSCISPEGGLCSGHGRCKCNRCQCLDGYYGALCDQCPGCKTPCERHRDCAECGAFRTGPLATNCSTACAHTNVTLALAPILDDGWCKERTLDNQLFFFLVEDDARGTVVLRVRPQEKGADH

Kd: 51 ± 7.9 nM
B1: Fc-tagged E-cadherin ectodomain (Fc fusion, UniProt P12830 155-698, looked up)
chain: DWVIPPISCPENEKGPFPKNLVQIKSNKDKEGKVFYSITGQGADTPPVGVFIIERETGWLKVTEPLDRERIATYTLFSHAVSSNGNAVEDPMEILITVTDQNDNKPEFTQEVFKGSVMEGALPGTSVMEVTATDADDDVNTYNAAIAYTILSQDPELPDKNMFTINRNTGVISVVTTGLDRESFPTYTLVVQAADLQGEGLSTTATAVITVTDTNDNPPIFNPTTYKGQVPENEANVVITTLKVTDADAPNTPAWEAVYTILNDDGGQFVVTTNPVNNDGILKTAKGLDFEAKQQYILHVAVTNVVPFEVSLTTSTATVTVDVLDVNEAPIFVPPEKRVEVSEDFGVGQEITSYTAQEPDTFMEQKITYRIWRDTANWLEINPDTGAISTRAELDREDFEHVKNSTYTALIIATDNGSPVATGTGTLLLILSDVNDNAPIPEPRTIFFCERNPKPQVINIIDADLPPNTSPFTAELTHGASANWTIQYNDPTQESIILKPKMALEVGDYKINLKLMDNQNKDQVTTLEVSVCDCEGAAGVCRKA
notes: E-cadherin ectodomain, D155-A698 (limits count on the precursor); Held on Protein A biosensors by the Fc; source: ExpiCHO cells, secreted, purified (HiTrap Protein G, SEC); not shown: Fc (human), C-terminal, kept

Reference: publication doi:10.1101/2023.11.05.565221, “Evolutionary origin and structural ligand mimicry by the inserted domain of alpha-integrin proteins” (bioRxiv, 2023)
